As a reminder, the EC50 is the midpoint of the concentration-response curve. As a reminder, the EC50 (read off the curve) is the midpoint of the concentration-response curve.

Changes are numbered by the printed parent chain.

In assay [1] the target is T1, CD73 on cynomolgus macaques CD3+CD8+ T cells (cynomolgus macaques, UniProt A0A2K5V5U7 27-549).
T1 construct: whole, on cells; also called cynomolgus macaques T cells; cynomolgus macaques PBMC
T1 sequence: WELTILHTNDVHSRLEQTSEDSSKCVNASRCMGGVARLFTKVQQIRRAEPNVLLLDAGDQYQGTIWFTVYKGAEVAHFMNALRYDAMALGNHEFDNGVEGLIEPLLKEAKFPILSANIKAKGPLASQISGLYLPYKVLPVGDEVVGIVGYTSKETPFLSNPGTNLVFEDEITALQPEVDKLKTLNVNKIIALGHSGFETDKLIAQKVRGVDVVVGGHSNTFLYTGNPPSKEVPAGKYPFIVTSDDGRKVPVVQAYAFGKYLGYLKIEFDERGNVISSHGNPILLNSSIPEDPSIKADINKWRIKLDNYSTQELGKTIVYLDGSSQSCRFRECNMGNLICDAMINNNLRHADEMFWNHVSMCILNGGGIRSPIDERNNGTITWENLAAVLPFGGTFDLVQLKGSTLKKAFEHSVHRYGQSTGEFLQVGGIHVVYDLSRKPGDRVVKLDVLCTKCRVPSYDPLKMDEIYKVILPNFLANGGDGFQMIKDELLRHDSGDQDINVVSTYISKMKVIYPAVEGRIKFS
Briefly: flow cytometry on cynomolgus macaque PBMC, CD3+CD8+ T cells, donor 1132F. The procedure: Monkey blood samples from two donors (1132F and 1300M) were obtained from Medicilon. Peripheral blood mononuclear cells (PBMCs) were isolated using a Ficoll density gradient centrifugation system. The PBMCs were incubated with the antibody to be tested, then the antibodies bound on the cells were stained with fluorochrome-labeled secondary antibodies (DyLight488 goat anti-mouse IgG, Abcam Cat. No. ab97015; DyLight488 goat anti-human IgG, Abcam Cat. No. ab97003), and the fluorochrome-labeled antibodies against CD3+ and CD8+ were used to recognize T cells. Together with the unstained control samples and the fluorescence compensation control samples, all the samples were run on a flow cytometer to detect the binding of the antibodies to cynomolgus macaques T cells.

In assay [2] the target is T2, human CD73 on the cell surface (tumor cells endogenously expressing human CD73; CHOS-human CD73) (human, UniProt P21589 27-549).
T2 construct: The endogenous CD73 of the human tumor lines (MDA-MB-231, Calu6, SK-ME-S, H2030, SKLU1, BT549, A375, HCC44) is treated as the same protein
T2 sequence: T1 sequence with T199M, A350T, I466V
The experiment in a line: full-field cell scanning analyzer (Celigo), percent fluorescent cells, H2030 cells endogenously expressing human CD73. The procedure: (§1) Experimental method: 10,000 cells were plated on a flat-bottom 96-well plate with 100 μL DMEM+10% FBS/well, cultured overnight so that the cells adhered to the well, and the supernatant was discarded on the next day. Serial 3-fold dilutions of antibody for 8 points were performed by diluting ⅓ of the total volume (100 μL) in 200 μL DMEM. 100 μL of the diluted antibody was added to each well of the cell plate (the supernatants of fused clones or subclones were used for screening), 100 μL of DMEM was added to the corresponding negative control well, and incubation was performed at room temperature for 1 hour. After the supernatant was discarded, 100 μL of secondary antibody (DyLight488 goat anti-mouse IgG (Abcam, Cat. No. ab97015)) was added to each well at a concentration of 5 μg/mL (diluted in DMEM), and incubation was performed for 0.5 hours at room temperature. After staining, the supernatant was discarded, followed by washing once with PBS+2% FBS, then 100 μL of PBS+2% FBS was added to each well, and then reading was performed on analyzer. A full-field cell scanning analyzer (Nexcelom Company, model Celigo® Image Cytometer) was used to measure the reading of the experimental plate. […] The binding effect of the anti-CD73 antibody to the CD73-expressing cell line was determined according to the percentage. […]

In assay [3] the target is T2, human CD73 on the cell surface (tumor …). The experiment in a line: full-field cell scanning analyzer (Celigo), percent fluorescent cells, SKLU1 cells endogenously expressing human CD73. The procedure:
as §1

Assay [4] shares this target. The experiment in a line: full-field cell scanning analyzer (Celigo), percent fluorescent cells, CHOS cells recombinantly expressing human CD73. The procedure: as §1
Assay [5] shares this target. Briefly: full-field cell scanning analyzer (Celigo), percent fluorescent cells, SK-ME-S cells endogenously expressing human CD73. As for the experimental part: as §1
For assay [6] the target is unchanged. The experiment in a line: cell binding on adherent CHOS-human CD73 cells, DyLight488 goat anti-mouse IgG, full-field cell scanning analyzer (Celigo), % fluorescent cells. The procedure:
as §1

B1: murine antibody 13D12 (antibody, V domains shown)
VH: DVKLQESGPAMVKPSQSLSLTCTVTGYSITSGYDWHWIRLFPGNKLEWMGYISYSGYTDYSPSLKSRISITHDTSKNHFFLKLHSVTTEDTATYYCTRGDHSYAMDYWGQGTSVTVS
VL: DIVMTQSHKFMSTSVGDRVSITCKASQAVGTAVAWYQQKPGQSPKLLIYWASSRHTGVPDRFTGSRSGTDFTLTISSVQSEDLADYFCQQYSSYPLTFGGGTNLEIK
notes: Mouse monoclonal antibody purified from hybridoma supernatant; also called mouse monoclonal antibody 13D12
Consider B1, for which the “MFI FC (fold change of mean fluorescence intensity)” value in assay [1] was 5 fold. The EC50 in assay [2] turned out to be 0.46 µg/mL; in assay [3], 2.46 µg/mL; in assay [4], 0.44 µg/mL; in assay [5] it was 1.72 µg/mL. Further, in assay [6], the “EC50 (read off the curve)” value is approximately 0.06 µg/mL.

The values are drawn from patent US20230312739A1 (BIOTHEUS, published 2023).
